Data as given in article PMC6269467 (Nature Communications, 2018).
Substitutions are numbered along the chain they refer to. Numbers in names are those of the source.

B1: αN-catenin actin-binding domain with the helix-1 mutation (αNcat-ABD-H1) (domain or fragment, mouse, UniProt Q61301-2 651-905, looked up)
chain: SRTSVQTEDDQLIAGQSAGSGSAQLPQEEKAKIAEQVEIFHQEKSKLDAEVAKWDDSGNDIIVLAKQMCMIMMEMTDFTRGKGPLKNTSDVINAAKKIAEAGSRMDKLARAVADQCPDSACKQDLLAYLQRIALYCHQLNICSKVKAEVQNLGGELIVSGLDSATSLIQAAKNLMNAVVLTVKASYVASTKYQKVYGTAAVNSPVVSWKMKAPEKKPLVKREKPEEFQTRVRRGSQKKHISPVQALSEFKAMDSF
notes: The substitution is printed in αN-catenin's own numbers; PDB 4K1O is the wild-type parent; 6DUW (form A) and 6DUY (form B) are this construct; also called αN-catenin ABD-H1; αN-H1; source: E. coli BL21-CodonPlus, purified (glutathione-sepharose, thrombin cleavage, Superdex 75); 15N-labelled in M9 minimal media for NMR; not shown: GST, N-terminal, cleaved
B2: αE-catenin actin-binding domain, wild type (αEcat-ABD-WT; residues 652-906) (domain or fragment)
chain: SRTSVQTEDDQLIAGQSARAIMAQLPQEQKAKIAEQVASFQEEKSKLDAEVSKWDDSGNDIIVLAKQMCMIMMEMTDFTRGKGPLKNTSDVISAAKKIAEAGSRMDKLGRTIADHCPDSACKQDLLAYLQRIALYCHQLNICSKVKAEVQNLGGELVVSGVDSAMSLIQAAKNLMNAVVQTVKASYVASTKYQKSQGMASLNLPAVSWKMKAPEKKPLVKREKQDETQTKIKRASQKKHVNPVQALSEFKAMDSI
notes: source: E. coli BL21-CodonPlus, purified (glutathione-sepharose, thrombin cleavage, Superdex 75); not shown: GST, N-terminal, cleaved
B3: αEcat-ABD V714A (domain or fragment)
chain: B2 chain with V63A
notes: as for B2
B4: αEcat-ABD L785A (domain or fragment)
chain: B2 chain with L134A
notes: as for B2
B5: αEcat-ABD I792A (domain or fragment)
chain: B2 chain with I141A
notes: as for B2
B6: αEcat-ABD V796A (domain or fragment)
chain: B2 chain with V145A
notes: as for B2
B7: αEcat-ABD 3A (L785A, I792A and V796A together) (domain or fragment)
chain: B2 chain with L134A, I141A, V145A
notes: as for B2
B8: αE-catenin actin-binding domain with the helix-1 mutation (αEcat-ABD-H1; RAIM670-673GSGS) (domain or fragment)
chain: B2 chain with R19G, A20S, I21G, M22S
notes: as for B2

Molecular target: the molecule itself
Assay: crystal structure; αNcat-ABD-H1 crystal forms A (P6522, 2.2 Å) and B (P212121, 2.8 Å), grown at 277 K by vapor diffusion
Conditions: not given

Binder | binding result
B1 | binds

What follows are binders tested against T1, filamentous actin (F-actin) from rabbit skeletal muscle (rabbit, UniProt P68135 1-377) (assay: BLI; F-actin immobilised on Streptavidin (SA) biosensors through LAbio peptide; αcat-ABD in solution at various concentrations; 26 °C, Octet384; 2 mM Tris-HCl pH 8.0, 0.2 mM ATP, 0.5 mM DTT, 0.1 mM CaCl2, 50 mM KCl, 2 mM MgCl2, 0.1% BSA, 0.02% Tween-20; 2:1 heterogeneous ligand model). Conditions: both partners purified.

KD1 (2:1 heterogeneous ligand model) [µM] | KD2 (2:1 heterogeneous ligand model) [µM] | koff1 (2:1 heterogeneous ligand model) [s⁻¹] | koff2 (2:1 heterogeneous ligand model) [s⁻¹] | kon1 (2:1 heterogeneous ligand model) [M⁻¹ s⁻¹] | kon2 (2:1 heterogeneous ligand model) [M⁻¹ s⁻¹] | Binder
2 | 0.3 | 0.465 | 0.00964 | 234000 | 31900 | B2
2.6 | 0.7 | 0.568 | 0.0135 | 221000 | 20100 | B3
27.8 | 4.8 | 0.69 | 0.0107 | 24900 | 2210 | B4
4 | 0.6 | 0.945 | 0.00881 | 234000 | 14500 | B5
3.7 | 1.8 | 0.773 | 0.0125 | 211000 | 6910 | B6
38.4 | 6.1 | 0.799 | 0.00849 | 20800 | 1400 | B7

These binders were tested against T1, filamentous actin (F-actin) from rabbit … (assay: co-sedimentation; actin cosedimentation at high RCF: 5 μM ABD and 5 μM actin in 50 μL Buffer-F, 1 h at RT, Airfuge ≥100,000×g 20 min at RT; supernatant and pellet by SDS-PAGE with coomassie, band intensity by ImageJ). Conditions: both partners purified.

reduction in the amount of ABD cosedimenting with F-actin compared to αEcat-ABD-WT [%] | Binder
75 | B4
36 | B5
47 | B6
78 | B7

These binders were tested against T1, filamentous actin (F-actin) from rabbit … (assay: BLI; as a2 but Super-Streptavidin (SSA) biosensors with increased streptavidin density, used for αEcat-ABD-H1; 1:1 binding model). Conditions: both partners purified.

Kd [µM] | koff [s⁻¹] | kon [M⁻¹ s⁻¹] | Binder
0.58 | 0.264 | 455000 | B8
